Measurements: article PMC10746525

Columns and labels:
GCN4-TRAK1_(342-431) [1] = target: GCN4-TRAK1_(342-431) (UniProt Q9UPV9); assay: ITC; VP-ITC, 25 °C; ITC buffer (20 mM Hepes pH 7.5, 400 mM NaCl, 1 mM MgCl2, 5% w/v sucrose, 0.1 μM GTP) with 50 μM CaCl2; MIRO1_(177-591) in the syringe, TRAK1 construct in the cell
GCN4-TRAK1_(342-431) [2] = target: GCN4-TRAK1_(342-431) (UniProt Q9UPV9); assay: ITC; VP-ITC, 25 °C; ITC buffer (20 mM Hepes pH 7.5, 400 mM NaCl, 1 mM MgCl2, 5% w/v sucrose, 0.1 μM GTP) with 5 mM EGTA; the binder of each row in the syringe

Sequence of MIRO1_(177-591) (Q8IXI2 177-591): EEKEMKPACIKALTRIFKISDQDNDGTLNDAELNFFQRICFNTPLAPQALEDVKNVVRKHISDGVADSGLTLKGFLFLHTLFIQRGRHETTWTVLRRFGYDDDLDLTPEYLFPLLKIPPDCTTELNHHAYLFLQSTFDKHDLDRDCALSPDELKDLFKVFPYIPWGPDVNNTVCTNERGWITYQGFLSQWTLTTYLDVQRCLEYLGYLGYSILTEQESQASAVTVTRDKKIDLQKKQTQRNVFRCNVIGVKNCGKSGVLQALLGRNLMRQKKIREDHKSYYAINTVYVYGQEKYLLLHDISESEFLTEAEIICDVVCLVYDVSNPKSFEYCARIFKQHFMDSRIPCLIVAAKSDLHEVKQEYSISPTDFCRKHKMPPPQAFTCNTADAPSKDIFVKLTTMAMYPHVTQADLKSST

- Kd (GCN4-TRAK1_(342-431) [1]): 7.04 µM
- stoichiometry N (GCN4-TRAK1_(342-431) [1]): 1.93
- Kd (GCN4-TRAK1_(342-431) [2]): 5.13 µM
- stoichiometry N (GCN4-TRAK1_(342-431) [2]): 1.84
Substance: MIRO1_(177-591) (from UniProt Q8IXI2 177-591) (domain or fragment)
